From the supplement of paper PMC10065799, “High-throughput profiling of sequence recognition by tyrosine kinases and SH2 domains using bacterial peptide display” (eLife, 2023)

Experiments:
Hck = Hck (UniProt P08631); experiment: phosphorylation enrichment, bacterial display (enrichment ratio); higher = better substrate or ligand; peptides without Tyr show the background
c-Abl (mouse) = experiment: as above
EPHB2 = EPHB2 (UniProt P29323); experiment: as above
c-Src = experiment: as above
Jak2 = Jak2 (UniProt O60674); experiment: as above
Sequence of Jak2 (O60674 whole entry, looked up): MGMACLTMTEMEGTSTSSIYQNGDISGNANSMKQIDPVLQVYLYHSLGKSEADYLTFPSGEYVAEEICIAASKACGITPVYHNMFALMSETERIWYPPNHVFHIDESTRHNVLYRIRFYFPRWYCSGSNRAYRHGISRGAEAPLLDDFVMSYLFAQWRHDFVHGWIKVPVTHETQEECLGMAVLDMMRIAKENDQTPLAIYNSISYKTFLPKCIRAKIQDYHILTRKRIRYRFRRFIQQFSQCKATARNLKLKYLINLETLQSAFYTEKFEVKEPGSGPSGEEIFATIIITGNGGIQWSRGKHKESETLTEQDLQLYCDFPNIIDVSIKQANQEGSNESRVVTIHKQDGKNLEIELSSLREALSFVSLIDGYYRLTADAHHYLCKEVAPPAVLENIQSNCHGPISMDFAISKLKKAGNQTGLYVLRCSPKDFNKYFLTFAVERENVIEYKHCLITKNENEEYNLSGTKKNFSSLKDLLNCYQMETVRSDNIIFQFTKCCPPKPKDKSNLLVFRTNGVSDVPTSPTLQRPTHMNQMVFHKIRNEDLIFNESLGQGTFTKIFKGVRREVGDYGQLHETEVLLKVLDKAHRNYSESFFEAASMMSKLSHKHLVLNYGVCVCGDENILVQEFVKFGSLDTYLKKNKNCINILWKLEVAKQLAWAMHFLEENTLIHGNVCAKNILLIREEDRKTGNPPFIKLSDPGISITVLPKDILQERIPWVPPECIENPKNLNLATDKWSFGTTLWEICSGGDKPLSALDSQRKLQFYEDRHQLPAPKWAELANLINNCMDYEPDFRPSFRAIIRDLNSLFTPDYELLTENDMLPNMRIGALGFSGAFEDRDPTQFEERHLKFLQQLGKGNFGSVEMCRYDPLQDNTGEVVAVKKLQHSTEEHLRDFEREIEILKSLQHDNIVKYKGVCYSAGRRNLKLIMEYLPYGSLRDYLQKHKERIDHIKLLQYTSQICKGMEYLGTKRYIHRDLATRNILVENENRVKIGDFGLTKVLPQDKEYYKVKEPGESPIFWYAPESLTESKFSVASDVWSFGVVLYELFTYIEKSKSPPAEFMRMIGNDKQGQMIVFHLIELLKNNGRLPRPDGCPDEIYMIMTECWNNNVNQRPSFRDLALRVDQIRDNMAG

Fer (mouse) = experiment: as above
MERTK = MERTK (UniProt Q12866); experiment: as above
FGFR1 = FGFR1 (UniProt P11362); experiment: as above
Sequence of FGFR1 (P11362 whole entry, looked up): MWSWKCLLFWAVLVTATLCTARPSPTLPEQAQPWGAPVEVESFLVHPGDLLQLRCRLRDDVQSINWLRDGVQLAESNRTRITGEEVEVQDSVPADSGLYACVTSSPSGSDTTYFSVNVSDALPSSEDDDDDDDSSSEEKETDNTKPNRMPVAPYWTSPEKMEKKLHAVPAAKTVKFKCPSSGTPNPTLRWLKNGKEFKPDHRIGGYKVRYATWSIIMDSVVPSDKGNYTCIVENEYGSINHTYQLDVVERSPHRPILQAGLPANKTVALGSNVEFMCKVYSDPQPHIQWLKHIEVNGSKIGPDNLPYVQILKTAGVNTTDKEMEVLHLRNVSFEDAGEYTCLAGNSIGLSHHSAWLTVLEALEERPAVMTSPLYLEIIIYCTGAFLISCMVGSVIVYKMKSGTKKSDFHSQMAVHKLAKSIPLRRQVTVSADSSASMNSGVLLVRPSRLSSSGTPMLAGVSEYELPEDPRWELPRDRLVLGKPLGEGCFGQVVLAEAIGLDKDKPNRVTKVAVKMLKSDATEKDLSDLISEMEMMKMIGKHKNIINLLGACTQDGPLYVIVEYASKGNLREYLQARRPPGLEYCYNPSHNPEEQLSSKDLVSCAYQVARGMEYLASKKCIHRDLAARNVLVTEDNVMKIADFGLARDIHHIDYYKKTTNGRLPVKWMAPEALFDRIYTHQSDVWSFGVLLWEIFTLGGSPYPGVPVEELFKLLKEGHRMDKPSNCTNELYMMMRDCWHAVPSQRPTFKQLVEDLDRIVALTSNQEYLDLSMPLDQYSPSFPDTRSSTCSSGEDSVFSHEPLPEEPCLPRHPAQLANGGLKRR

AncSZ = experiment: as above
Fes = Fes (UniProt P07332); experiment: as above
Sequence of Fes (P07332 whole entry, looked up): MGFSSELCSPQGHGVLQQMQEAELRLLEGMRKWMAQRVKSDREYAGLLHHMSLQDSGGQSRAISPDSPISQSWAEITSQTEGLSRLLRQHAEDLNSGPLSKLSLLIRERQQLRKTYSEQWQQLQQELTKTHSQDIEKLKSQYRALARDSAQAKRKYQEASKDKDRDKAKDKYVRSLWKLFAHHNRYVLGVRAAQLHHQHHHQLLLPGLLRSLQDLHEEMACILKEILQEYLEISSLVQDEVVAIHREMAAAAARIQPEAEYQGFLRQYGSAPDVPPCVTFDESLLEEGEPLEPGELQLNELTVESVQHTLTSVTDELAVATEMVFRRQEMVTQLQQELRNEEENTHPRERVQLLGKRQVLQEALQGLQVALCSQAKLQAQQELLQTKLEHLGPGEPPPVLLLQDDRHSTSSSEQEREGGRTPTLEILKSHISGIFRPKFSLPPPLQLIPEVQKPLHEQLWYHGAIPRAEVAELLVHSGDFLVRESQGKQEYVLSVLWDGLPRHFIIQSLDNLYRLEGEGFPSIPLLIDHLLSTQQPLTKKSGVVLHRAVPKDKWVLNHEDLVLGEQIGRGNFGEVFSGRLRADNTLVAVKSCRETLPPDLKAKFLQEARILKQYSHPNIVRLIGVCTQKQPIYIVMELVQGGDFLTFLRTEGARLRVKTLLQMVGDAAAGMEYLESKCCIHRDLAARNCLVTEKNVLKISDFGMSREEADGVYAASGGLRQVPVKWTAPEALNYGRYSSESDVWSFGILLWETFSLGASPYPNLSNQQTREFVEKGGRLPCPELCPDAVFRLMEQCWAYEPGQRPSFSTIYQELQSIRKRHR

Fyn = Fyn (UniProt P06241); experiment: as above
Sequence of Fyn (P06241 whole entry, looked up): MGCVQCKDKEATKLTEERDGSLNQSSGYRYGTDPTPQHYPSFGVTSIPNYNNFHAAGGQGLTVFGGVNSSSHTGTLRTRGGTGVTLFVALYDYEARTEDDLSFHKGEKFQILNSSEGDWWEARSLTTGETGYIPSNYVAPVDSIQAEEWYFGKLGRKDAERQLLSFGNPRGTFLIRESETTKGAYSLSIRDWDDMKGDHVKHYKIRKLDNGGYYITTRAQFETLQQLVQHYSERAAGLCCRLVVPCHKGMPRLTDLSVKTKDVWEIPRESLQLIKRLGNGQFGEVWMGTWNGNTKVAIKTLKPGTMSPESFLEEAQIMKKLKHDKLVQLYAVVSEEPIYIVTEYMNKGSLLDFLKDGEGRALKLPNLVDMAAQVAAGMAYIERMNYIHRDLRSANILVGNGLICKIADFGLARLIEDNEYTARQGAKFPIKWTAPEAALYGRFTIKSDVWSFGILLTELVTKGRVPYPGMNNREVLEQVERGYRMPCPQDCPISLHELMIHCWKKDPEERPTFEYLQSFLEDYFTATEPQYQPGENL

EPHB1 = EPHB1 (UniProt P54762); experiment: as above
FGFR3 = FGFR3 (UniProt P22607); experiment: as above
Sequence of FGFR3 (P22607 whole entry, looked up): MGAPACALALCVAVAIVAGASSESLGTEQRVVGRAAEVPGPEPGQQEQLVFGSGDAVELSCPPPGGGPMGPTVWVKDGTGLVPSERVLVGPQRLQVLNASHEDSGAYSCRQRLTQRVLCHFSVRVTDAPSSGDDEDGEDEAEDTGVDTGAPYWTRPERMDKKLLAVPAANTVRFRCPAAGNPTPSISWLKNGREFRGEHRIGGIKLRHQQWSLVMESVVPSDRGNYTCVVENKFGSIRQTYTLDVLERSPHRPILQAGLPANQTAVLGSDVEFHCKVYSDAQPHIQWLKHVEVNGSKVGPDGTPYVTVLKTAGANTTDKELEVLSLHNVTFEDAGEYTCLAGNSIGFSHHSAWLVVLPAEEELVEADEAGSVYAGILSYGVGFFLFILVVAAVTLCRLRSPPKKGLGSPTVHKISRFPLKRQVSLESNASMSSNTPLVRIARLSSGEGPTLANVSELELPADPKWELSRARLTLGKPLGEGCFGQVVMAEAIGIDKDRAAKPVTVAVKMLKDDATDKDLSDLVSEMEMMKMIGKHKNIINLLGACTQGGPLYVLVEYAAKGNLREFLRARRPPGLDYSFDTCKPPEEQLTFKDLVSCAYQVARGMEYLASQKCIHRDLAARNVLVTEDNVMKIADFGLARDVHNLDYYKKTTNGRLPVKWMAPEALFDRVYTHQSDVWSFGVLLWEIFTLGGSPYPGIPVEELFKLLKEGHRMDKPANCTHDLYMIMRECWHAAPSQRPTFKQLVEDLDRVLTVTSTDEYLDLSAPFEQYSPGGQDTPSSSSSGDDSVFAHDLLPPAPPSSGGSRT

SHP2-C SH2 = experiment: SH2 binding enrichment of the phosphorylated peptide, bacterial display (enrichment ratio); higher = better substrate or ligand; peptides without Tyr show the background
c-Src SH2 = experiment: as above
Grb2 SH2 = Grb2 SH2 (UniProt P62993); experiment: as above
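Wherever SH2 binding enrichment of the phosphorylated peptide, bacterial display is given: peptide library displayed on the E. coli surface as eCPX fusions, selected cells deep-sequenced, score is each peptide's frequency after selection divided by its frequency in the input.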
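Wherever phosphorylation enrichment, bacterial display is given: 11-residue human phosphosite peptides and single-mutation variants displayed on the E. coli surface, counted by deep sequencing, each peptide's frequency after selection divided by its frequency in the unselected input library; frequency after pTyr selection over input frequency; kinase dosed for 20-30% of maximal phosphorylation in three min.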

Sequence of Hck (P08631 whole entry, looked up): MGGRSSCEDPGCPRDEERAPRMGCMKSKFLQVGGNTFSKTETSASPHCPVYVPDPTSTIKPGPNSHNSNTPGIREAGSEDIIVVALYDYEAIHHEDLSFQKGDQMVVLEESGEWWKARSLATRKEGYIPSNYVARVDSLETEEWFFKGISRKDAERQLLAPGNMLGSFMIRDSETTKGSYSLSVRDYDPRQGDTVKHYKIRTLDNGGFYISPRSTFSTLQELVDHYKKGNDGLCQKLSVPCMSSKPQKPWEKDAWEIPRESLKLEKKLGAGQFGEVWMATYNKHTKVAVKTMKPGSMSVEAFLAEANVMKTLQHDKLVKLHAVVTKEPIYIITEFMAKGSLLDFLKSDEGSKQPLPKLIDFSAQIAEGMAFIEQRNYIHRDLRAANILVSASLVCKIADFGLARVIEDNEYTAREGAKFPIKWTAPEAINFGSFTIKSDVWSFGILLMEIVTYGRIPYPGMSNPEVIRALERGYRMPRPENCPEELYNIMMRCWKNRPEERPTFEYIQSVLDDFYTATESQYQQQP

Row | Sequence | SH2 binding enrichment (SHP2-C SH2) | SH2 binding enrichment (c-Src SH2) | SH2 binding enrichment (Grb2 SH2) | phosphorylation enrichment (Hck) | phosphorylation enrichment (c-Abl (mouse)) | phosphorylation enrichment (EPHB2) | phosphorylation enrichment (c-Src) | phosphorylation enrichment (Jak2) | phosphorylation enrichment (Fer (mouse)) | phosphorylation enrichment (MERTK) | phosphorylation enrichment (FGFR1) | phosphorylation enrichment (AncSZ) | phosphorylation enrichment (Fes) | phosphorylation enrichment (Fyn) | phosphorylation enrichment (EPHB1) | phosphorylation enrichment (FGFR3)
1 | GHPFAYDWISI [BEST1_Y227_L224P_YF] | 0.869 | 1.72 | 1.36 | 0.811 | 0.562 | 0.721 | 0.629 | 0.774 | 14.7 | 6.57 | 2.03 | 1.04 | 1.22 | 0.478 | 0.932 | 1.29
2 | SKGYAYVHFDS [PABPC5_Y149] | 29.3 | 11.1 | 0.991 | 0.53 | 0.953 | 0.561 | 0.479 | 1.05 | 0.584 | 0.37 | 0.632 | 1.22 | 1.25 | 0.449 | 0.575 | 0.749
3 | VLTSKYPGGGG [HBA1_Y141_R142P] | 0.612 | 0.366 | 0.737 | 0.296 | 0.342 | 0.374 | 0.276 | 0.441 | 0.303 | 0.392 | 0.28 | 0.349 | 0.443 | 0.344 | 0.229 | 0.342
4 | TVHPGYGFLSE [PCCA_Y143_A138T] | 0.962 | 0.433 | 0.941 | 0.488 | 0.529 | 0.467 | 0.566 | 0.676 | 0.425 | 0.396 | 0.393 | 0.717 | 0.747 | 0.384 | 0.455 | 0.478

Now from value to sequence, other results behind:

Row | SH2 binding enrichment (SHP2-C SH2) | SH2 binding enrichment (c-Src SH2) | SH2 binding enrichment (Grb2 SH2) | Sequence | phosphorylation enrichment (Hck) | phosphorylation enrichment (c-Abl (mouse)) | phosphorylation enrichment (EPHB2) | phosphorylation enrichment (c-Src) | phosphorylation enrichment (Jak2) | phosphorylation enrichment (Fer (mouse)) | phosphorylation enrichment (MERTK) | phosphorylation enrichment (FGFR1) | phosphorylation enrichment (AncSZ) | phosphorylation enrichment (Fes) | phosphorylation enrichment (Fyn) | phosphorylation enrichment (EPHB1) | phosphorylation enrichment (FGFR3)
5 | 0.532 | 0.402 | 0.617 | SVTCTYSPALH [TP53_Y126_N131H] | 0.556 | 0.808 | 0.62 | 0.741 | 1.23 | 0.492 | 0.413 | 0.487 | 1.28 | 1.41 | 0.545 | 0.71 | 0.724
6 | 0.906 | 0.536 | 1.03 | RHYVYYYSYLL [PTEN_Y177_R173H] | 2.49 | 1.35 | 2.13 | 2.18 | 3.46 | 1.37 | 5.71 | 7.03 | 1.89 | 2.26 | 1.59 | 2.69 | 6.42
7 | 3.1 | 2.23 | 1.12 | KALSLYTKLMN [STAM_Y371_E366K] | 0.537 | 0.605 | 0.774 | 0.393 | 1.14 | 0.588 | 0.446 | 0.555 | 1.36 | 1.32 | 0.46 | 0.673 | 0.872
8 | 0.838 | 0.786 | 1.07 | TACNPYKPPGP | 0.384 | 1.14 | 0.417 | 0.46 | 0.521 | 0.449 | 0.393 | 0.354 | 0.605 | 0.717 | 0.469 | 0.733 | 0.437
9 | 0.597 | 0.434 | 0.91 | GGDAVYTNGTI [RFX2_Y82_A86T] | 1.19 | 0.74 | 0.488 | 1.32 | 0.667 | 0.464 | 0.391 | 0.392 | 0.778 | 0.836 | 1.17 | 1.39 | 0.613
